Source: the domain aggregation screens of Martell et al. (2025)

Assay: soluble fraction after stress (log2 fold change); higher = more stays soluble; pooled small domains, quantitative proteomics
Conditions: stress: 50 degC
Procedure, shortened: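 Pooled custom libraries of small protein domains were each held under stress at 50°C. The read-out, high-throughput quantitative proteomics, tracked how much of each protein stayed soluble. This is reported as a base-two log fold change used to indicate aggregation propensity. Higher values mean more protein remains in solution.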

## HMPATIEGIRLYLSSGLIKGVGEEMASRIVKAFGTDTIRVLDEEPERLLKVRGVGKKSLDRIRTSWAEH
  soluble fraction (log2): -0.386

## HMPATPDATVQAVQQRLNELGYDVGSADGLMGRGTRSAIIAFQQDRGLAATGVADQALLLQLQP
  soluble fraction (log2): 0.208

## HMPAWKINQELQATVIATKANQTRLRIEGQTFETQTAIALKPGQSLLIKVVSLEPQISFALI
  soluble fraction (log2): -1.45

## HMPDFLAELAARMERDAVTEAQIRQVVAQKGHYPEEVSPAQYHPDFFRQWLFPHWEKIVDVIRSSPEYTP
  soluble fraction (log2): -0.0503

## HMPDGTATATASVNVRSGASTLSPVLGVLRVGESIGVTGQANGGWVPVNYNGRAGYVYAAYLSFD
  soluble fraction (log2): -0.161

## HMPDKIDSAAQGILDKLIRNDGFMAVTDKSPPEAIYKLFGVSKKVFKQAIGSLYKNRLITIEDAGLRIIPQ
  soluble fraction (log2): -0.0609

## HMPDLKIGKDHRLAEYIETKIAEDGYSPGAVLGEIKAKGLEFETEISKPTLYSYIDKGIFLTITNKELPV
  soluble fraction (log2): 0.105

## HMPDLQKAIDDLLQVVDKRLNTSFESILNEVNSEKEAVAFFLALLEAVRWGFVKASQSDEGIKIEK
  soluble fraction (log2): -0.00989

## HMPDLSAEERNIVEALQKSNDLQVNLIAVKTGMDMGTLSATLFGLEMKGLVKLMAGGTYHLI
  soluble fraction (log2): -0.141

## HMPDLSEDEEKIVSLLRDNNDLNVNIIVMRTQLPSATVTSSLFSLELKGVVRMYAGGMYHLM
  soluble fraction (log2): -1.7

## HMPDLSYVDEVLNRYKGHKGTLITVLQQVQAHKGYLEKEALERVARSMGVPTARIYGVVTFYAQFR
  soluble fraction (log2): 0.0318

## HMPDPVHAAYLRLAVLLTEQAIGPQVTEQQIRDRFALTRRQTSDLMGRLIREGIAEKRAGYGWNINTELTA
  soluble fraction (log2): -0.845

## HMPDVAIMNVSVEPEKKVVRLQVKAISLEALLDFSTRLEAIPARVELQNHTPSKELSQKWAVNATLIVIY
  soluble fraction (log2): 0.146

## HMPDYYAILEVERTADAKTIKAAYRKLALAYHPDRNPGDQAAEERFKQINEAYAVLSDPEKRARYDRYGSV
  soluble fraction (log2): -0.31

## HMPEFKDMLKFFRMREHLSQSELAEKLGISASTVSMYEVGRRQPDFETEEKIADFFNTDLNTLRG
  soluble fraction (log2): -0.39

## HMPEGTYLEKLAIENNNLQLIGLSREASQLVQLLQDAPQWRKVNLTGVLQADGAASGRDRFTMTAELQ
  soluble fraction (log2): 0.0683

## HMPEKNQITHLIRLIDDRDEFVRKRVREQLIKLGEDAIPFLEMAAKTENLEIQRIASEIIQAIIPRQ
  soluble fraction (log2): -0.13

## HMPELPPHELLRALMVEHDIKQSELPEVGPQPVVSDVLAGKRALNLRQVAALAARFHVPMEVFT
  soluble fraction (log2): -0.153

## HMPELSITDADIIVAGGRGMGSAENFGLIRELAGLLGAAVGASRVVVDAEWVDQKHLIGQTGK
  soluble fraction (log2): -0.112

## HMPELTASDEADLKALVGGDQGFEQMANWARSNLGEEEINRFDAVVDSNNKDAIHMAIQAMQARMNA
  soluble fraction (log2): 0.0174

## HMPELTERELEVLLLTARGLPSSEAARLLFITRRTVAAHLTSIYGKLGARNKTEAVLAALKRGIIMLDQIG
  soluble fraction (log2): -4

## HMPESYFEMLQKLLETYALPQEGTIYFSAADLARMPQKFEDVIEQTAQKKGGHLVVSKEPKDMDGGFVLV
  soluble fraction (log2): -1.41

## HMPEVAHTIDMEAVNKHWDELPEREQRILVMRFYGNLTQTEIGERLGISQMHVSRLLARALSHLKSRLLD
  soluble fraction (log2): -3.37

## HMPEVYPFEVAEDDAGKRLDVFLSEEIEEFTRSFIQKLIAGGLASVNRAPARASYRVKPRDLVELQVPE
  soluble fraction (log2): -0.448

## HMPFNREYWIEQLLKEVGLMGTPYAELDKHEVELDSPTGRASGFKVNAKTYVDQQLLFIENEYNNQPE
  soluble fraction (log2): -0.153

## HMPFREGDEVFVELVEPHMYNEDDAVAKLDGYVVAVRGAAGLVGQKVLVRIERVGRSSAEATLVA
  soluble fraction (log2): 0.109

## HMPGEIKKIPINSISYQDLKQHPYFDAYLAKQVIKYRETKGRIENIEQFREATRAYQSLIEKVTPYLDFE
  soluble fraction (log2): 0.14

## HMPGGLSAEDVEKMVEKVLTVNGDVVEEIRSGRDPKGKKIKFLAGLVMRDARGQADAAAVSGILERRLKEG
  soluble fraction (log2): 0.133

## HMPGLITLEAAKTTALNHAKLTADQVTFVKQKLDRDDGRQVYEIEFYTSDYKEYDYEIDAVSGLILEVDYD
  soluble fraction (log2): -0.671

## HMPGLPLWAFSTRGSAIHTGASFRDGDGLLFGPESRGLPDWLLEEVGQDRVLRLPMRPGSRSLNLSNAV
  soluble fraction (log2): -0.304

## HMPGPAEMPGWITARAKKLGGQITPEAARALAAEMGSDTEQASREIEKLLTYVDYRRPVEEEDVALLTA
  soluble fraction (log2): -0.0046

## HMPGRKTTFEERLSIIEDLIKHDVNYSWAVDKYHVSYQQVYGWYQKYRKSGNDPQSLRDRRGK
  soluble fraction (log2): -2.7

## HMPGRPSRISDAVKDQIDHDLRKNPRDLGYSQNLWDGKLLSHHLKERYQITLGIRQAQRLFHQLGFRQR
  soluble fraction (log2): -0.0323

## HMPGVLEVDTGGVAAVAYVDGVEVGRVPGELQIAAGTKTLMLKADRYLDYVQSLEIDGLGKRQLLVATLQS
  soluble fraction (log2): -0.25

## HMPGVTTQLHRLNGTEETYIIKRGDGVLEIDGEKSELQLGDAIIIPAGASQKISNIGDEDLE
  soluble fraction (log2): -0.346

## HMPHFFISTSDVNQDIITVSDKENFHHIARVLRSKVGETLLLVDENRTQYKVVIQNIDSKSITTKVVETLK
  soluble fraction (log2): -0.138

## HMPHFGVVLQMDDWKTLRDRLEARDDIDWVMKPNLRFEGQPGEQATLFIRDPSGNALEFKGFADLSQVF
  soluble fraction (log2): -0.348

## HMPHSTTDFSVSPDERQIVYSTNLQGRYDLWALDHNQGYPYPLTKKGQMSFFIKHLPGSQMILTGFD
  soluble fraction (log2): 0.00171

## HMPIDQAKRKKEIIQNFGIRKIYKFSEIFDLKFGRDNIIVTFLIILDMIKEGVVEINENKEEIEFEYK
  soluble fraction (log2): -0.166

## HMPIKYTHKGYTINVSRSKMNGTTFVKVVDPKGQVIQQSQDNRIQDVNQLVTTMKQYIDTLKPS
  soluble fraction (log2): 0.189

## HMPILRDEVYLSIKEAILTGELAPGERISIGRLLPQIGFSPTPIREALLKLEQEGFVSRLQRGGFIVSR
  soluble fraction (log2): -0.991

## HMPIQLLSEKYMDEHWDELDKDEVSLYQNMSIRFLLKHEDDINWKLYSTNPFISIDTIDFFKDKISWVNI
  soluble fraction (log2): -2.57

## HMPKAKASARNDTRTRLLTIGTEVLSQKGFASTGVEEILSVAGVPKGAFYYYFESKAAFGLAVIENYE
  soluble fraction (log2): 0.0027

## HMPKAMAIMSEIAGTVHIDDTKKSRHVEVTGVDDNGAPVTKSYLIPFGHRLKVMEGDVLVKGALLT
  soluble fraction (log2): -0.0964

## HMPKHHIESVIPENFAGERLDKVLAVLWGTFSRAQLTRWIRDGSLLLDGHKVKPNTKVDGSEKIVLQAEVA
  soluble fraction (log2): -0.891

## HMPKNEHETKAIGNQTGGRVFLFLNTDNINRDYNMYISKQVKFVREISQEYYGKVAVFEDLYGNLWDLIE
  soluble fraction (log2): 0.149

## HMPKNRTDYVQDVLKSLGRPAHYKEITQIINAMLPKEAQYSAKSIQVVLGSSPLFIRVGTGTYALVE
  soluble fraction (log2): -0.679

## HMPKNVEVPNVVGLSLPMAKLRLTQLGLHIVVRDSVWSETGQPNTILDQDPQPGKKIKPESTVYVKVN
  soluble fraction (log2): -0.0939

## HMPKRYAGPDIIAIYGSDVFFRVGSGDGLMVIPVGRSMDNIEVVSVDAPRSVELMWKDGGPFTVPV
  soluble fraction (log2): -0.165

## HMPKSKTPDDAAEEFRTAFSALDMDGKVTVKDMAEYMGVIDKTVYARLKKMGDEFTLDKGVITKKT
  soluble fraction (log2): -0.0532

## HMPKTATIVIDLNYADAKEIVENLQTILAGETKDISVAPHPSANQIIASGDRWEVENISTIIKQLDR
  soluble fraction (log2): 0.00694

## HMPKTLTEAAYEDIKQWILEGEITPGSKISLEDTASRLEVSMTPIREALTKLQQEGLVEYIPRAGWRASK
  soluble fraction (log2): 0.173

## HMPLAQRFGLTVAQARVLDLLAEGRSNRQIGELLGLTEGTVKIHVSAIMKAMGVSNRAEAALMANRKR
  soluble fraction (log2): -0.717

## HMPLDKDTTLDEIYRRFNMEHPADYKGHSLSMGDIVVFRQDGKQTAYYVDEGADYRQVPEFFVK
  soluble fraction (log2): 0.0346

## HMPLDPFVVDALRDEIINTIKQHEPRVDLQKVQVQPIYTQNRVNISVQYKIVGLPIVEDITFVLQRP
  soluble fraction (log2): -0.0764

## HMPLEKGVVILDVTPSSAKVAVDGTSVETTYPLRLSAGLHQLSAEADGYDSITEYFKVETEKTTVTLDLSK
  soluble fraction (log2): 0.105

## HMPLEQAELRLDLKQAILQMDRQTQELLLLRYVDGLSPGEAGKVLELSRFAVYRREKEALRKLRDYFSH
  soluble fraction (log2): -1.79

## HMPLLSEWDAALEELWAKLGDVPMDPETERMDAPFLGFPAGTPREDIWHWFDERHSKGVAHLLYG
  soluble fraction (log2): -2.37

## HMPLQYRLTVQPTPTNARVRLVNSAFTYRPGVALPPGSYIVEVSSSGYGAKRQAVQIADGDVTVPVELEKI
  soluble fraction (log2): -0.012

## HMPLYKYYTSYQIEPGDTLTSIAQKYTINSDVSVQDYIDEVKKNNNLVSDKINSGSYLVVSYYSNEY
  soluble fraction (log2): -2.35

## HMPNIQLARNLKYLRLAYGLTQDDLGAFLNISRQAYSNYENLKRSPDLDSLIRLASLYHLSLDDLVSR
  soluble fraction (log2): -3.09

## HMPNTLAGIERYLGSGMVKGIGPVYASRLVSAFGTAVFDVIEQTPERLREIDGIGEKRTRKITSGWADQ
  soluble fraction (log2): -0.127

## HMPNYIDAISALLTLKGVGDRKHASTMANILNLQYNSAKQKLDGKRGITLDEVKKVFQYFNEPF
  soluble fraction (log2): -1.1

## HMPPAPGHDLTEREREVLRLLVEGLSNQEISDRLVISQSTVKNHVSSVLSKLDAANRAEAVALALKNQL
  soluble fraction (log2): 0.00346

## HMPPELSDEVMEEAMSYLKNQYLNHGVKLEDYPALNKLFVDEAFRSEVIRKTQSNYKISYQSAMASLD
  soluble fraction (log2): 0.0219

## HMPPENVSVRREQIAEDKKTVYNVWVTKGNKTVLYSKVVYAWGGVYFFRDLNTSISENMYKQADAGLVN
  soluble fraction (log2): 0.0555

## HMPPGQIVNEALQRAGNSTPTGTAISAQDDIKLYTSALAELATQGDTSSASVAKLREALQTAQVAFYNAV
  soluble fraction (log2): 0.0769

## HMPPITIVPNDNGVPIIRSQTPEISTAVNVELKAAGINTHTIDGTSIRVPKAQAQVAQQIVSRVNTRFT
  soluble fraction (log2): 0.158

## HMPPNHADLKSSGLKATLPRLKILEIFQNSQVRHLSAEDVYKLLLAENLDVGLATVYRVLTQFEQAGL
  soluble fraction (log2): -0.475

## HMPPNRDDEHLQALRDYYAANRRIPSLQRVASLLGFSSRSAAVKLMGRLADEGFIERTADDDAWITGKRFF
  soluble fraction (log2): -1.19

## HMPPNVLSEREQEVLQLAADGMSNKEMGSELYIAPTTVRDHMQSIMRKLQVNSRTAAAVAGLKLGLLD
  soluble fraction (log2): -0.1

## HMPPPTLVESAYNHLKADIISSYLKPDEKINLKDLSQRYQVSETPIKQALNRLISEGLIISVPRKGMWVH
  soluble fraction (log2): -0.0852

## HMPPPVERAIRKLGHDLSLARRRRRISQDSMAQRMGASVSTVRRIEKGDPRIPIHFIARAMMILGDLKAL
  soluble fraction (log2): -0.0422

## HMPQFDRQAFGQRLRLLRDYREMTQQQVANFLNVDRSTYSYYENGKTEPSITVLMRMAELFSVTLDSLLNM
  soluble fraction (log2): -2.83

## HMPQIDLYPFEVRIEQDNNAAEYAVRFLDVPNIIGSGASIDEAIVEARGNLKEYLDYLIDTNRDIPLPS
  soluble fraction (log2): -0.412
